Experiment [1] deals with T1, full-length Angiopoietin-2-His protein (R&D Systems #623-AN/CF or in house produced material) (human, UniProt O15123 19-496, limits assumed).
T1 construct: also called human ANG-2; ANG-2-His; not shown: His tag
T1 sequence: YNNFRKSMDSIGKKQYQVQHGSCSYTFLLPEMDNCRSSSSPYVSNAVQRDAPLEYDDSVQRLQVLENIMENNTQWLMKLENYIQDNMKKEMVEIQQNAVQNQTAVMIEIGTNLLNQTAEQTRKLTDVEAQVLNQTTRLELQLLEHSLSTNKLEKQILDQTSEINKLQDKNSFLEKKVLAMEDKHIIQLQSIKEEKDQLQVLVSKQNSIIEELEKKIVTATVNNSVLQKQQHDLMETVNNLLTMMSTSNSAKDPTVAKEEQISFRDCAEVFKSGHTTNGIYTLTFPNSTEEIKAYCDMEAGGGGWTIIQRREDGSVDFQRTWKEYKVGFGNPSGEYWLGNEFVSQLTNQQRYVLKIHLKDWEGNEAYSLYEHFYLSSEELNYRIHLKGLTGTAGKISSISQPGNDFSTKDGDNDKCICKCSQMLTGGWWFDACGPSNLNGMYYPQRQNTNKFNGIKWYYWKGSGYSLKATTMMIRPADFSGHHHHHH
The experiment is described as follows: ANG-2 binding ELISA, coated ANG-2.

Experiment [2] deals with T2, Angiopoietin-1-His (R&D systems #923-AN) (human, UniProt Q15389 20-498, limits assumed).
T2 construct: also called human ANG-1; hANG-1; not shown: His tag
T2 sequence: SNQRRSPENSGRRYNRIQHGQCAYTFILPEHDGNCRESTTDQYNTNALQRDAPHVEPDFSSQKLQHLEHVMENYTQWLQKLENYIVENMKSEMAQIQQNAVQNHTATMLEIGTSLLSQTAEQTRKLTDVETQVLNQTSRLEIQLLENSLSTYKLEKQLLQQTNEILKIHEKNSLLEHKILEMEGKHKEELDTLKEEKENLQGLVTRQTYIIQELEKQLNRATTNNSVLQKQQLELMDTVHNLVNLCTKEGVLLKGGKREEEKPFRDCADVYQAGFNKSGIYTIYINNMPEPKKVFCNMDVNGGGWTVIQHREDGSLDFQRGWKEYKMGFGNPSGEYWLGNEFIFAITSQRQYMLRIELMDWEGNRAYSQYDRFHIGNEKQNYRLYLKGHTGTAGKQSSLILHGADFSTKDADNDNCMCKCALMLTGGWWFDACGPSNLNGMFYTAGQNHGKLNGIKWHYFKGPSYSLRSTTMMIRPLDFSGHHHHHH
The experiment is described as follows: ANG-1 binding ELISA, coated ANG-1. In general terms: An ELISA detects its analyte on a solid surface through an enzyme-linked reagent.

Experiment [3] addresses T1, full-length Angiopoietin-2-His protein …. The experiment is described as follows: cell-based or functional assay.
Experiment [4] has the same target. The experiment is described as follows: inhibition of huANG-2 binding to coated Tie-2 (ELISA).
Experiment [5] deals with T3, rhVEGF (R&D Systems Cat. No. 293-VE) (human, UniProt P15692 181-395).
T3 construct: Analyte in the Biacore assays; also called VEGF-A
T3 sequence (P15692 other isoform, or with tags, fused parts or gaps limits assumed): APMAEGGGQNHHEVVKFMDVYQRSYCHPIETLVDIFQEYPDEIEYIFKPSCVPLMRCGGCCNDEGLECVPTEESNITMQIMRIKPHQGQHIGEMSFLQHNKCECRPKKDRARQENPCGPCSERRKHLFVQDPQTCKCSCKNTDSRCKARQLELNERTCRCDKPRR
The experiment is described as follows: SPR (Biacore), antibody on captured Ang-2, then rhVEGF. In general terms: Surface plasmon resonance follows binding to a sensor surface in real time, without labels.

Experiment [6] has as its target T1, full-length Angiopoietin-2-His protein …. The experiment is described as follows: SPR (Biacore), antibody captured by secondary antibody, ANG-2 analyte; KD only a relative estimation.
Experiment [7] has as its target T4, full-length VEGF165-His protein (R&D Systems) (human, UniProt P15692 181-395).
T4 construct: also called recombinant human VEGF165; VEGF-A; not shown: His tag
The experiment is described as follows: VEGF binding ELISA, coated VEGF165.

Experiment [8] concerns the target T1, full-length Angiopoietin-2-His protein …. The experiment is described as follows: SPR (Biacore T100), antibody captured via anti-hIgG-Fc, ANG-2-His analyte, 25 C; relative estimation.
The target in experiment [9] is T3, rhVEGF (R&D Systems Cat. No. 293-VE). The experiment is described as follows: SPR (Biacore), hVEGF affinity.
The target is the same in experiment [10]. The experiment is described as follows: SPR (Biacore T100), antibody captured via anti-human IgG, rhVEGF analyte, 37 C.

Some results are limits rather than exact numbers.

This is an account of results in US20210047394A1 (Hoffmann-La Roche, published 2021).

T4 sequence (P15692 other isoform, or with tags, fused parts or gaps): as the sequence (P15692 other isoform, or with tags, fused parts or gaps limits assumed) above

B1: <ANG-2>Ang2i_LC07 (antibody, V domains shown)
VH: not shown
VL: QPVLTQSPSVSVAPGETARVACGGNFIGGKSVHWYQQKPGQAPVLVIYDDSERPSGIPERISGSNSGNTATLIITRAEAGDEADYHCQVWDSDSDQGVFGTGTKLTVLG
notes: Parent monospecific antibody
In the case of B1, the results for the EC50 in experiment [1] and in [2] were 3.01 µg/mL and over 8 µg/mL, respectively.

B2: <ANG-2>Ang2i_LC06 (antibody, V domains shown)
VH: not shown
VL: QPGLTQPPSVSVAPGQTARITCGGNNIGSKSVHWYQQKPGQAPVLVVYDDSDRPSGIPERFSGSNSGNTATLTISRVEAGDEADYYCQVWDSSSDHYVFGTGTKVTVLG
notes: Parent monospecific antibody
Regarding B2, the 50% effective concentration (EC50) was 0.084 µg/mL in experiment [1] and over 8 µg/mL in [2]. In addition, the “IC50, ANGPT2 stimulated Tie2 phosphorylation (HEK293-Tie2 cells), first experiment” value in experiment [3] is about 0.508 µg/mL. Further, in experiment [3], the “IC50, ANGPT2 stimulated Tie2 phosphorylation (HEK293-Tie2 cells), second experiment” value was about 0.424 µg/mL.

B3: <ANG-2> Mab536 (antibody, V domains shown)
VH: EVQLVQSGGGVVQPGRSLRLSCAASGFTFSSYGMHWVRQAPGKGLEWVSYISSSGSTIYYADSVKGRFTISRDNAKNSLYLQMNSLRAEDTAVYYCARDLLDYDILTGYGYWGQGTLVTVSS
VL: not shown
notes: monospecific 'standard' IgG1 antibody; also called Mab536 (1000)
Turning to B3, the concentration giving a half-maximal response (EC50) was determined as 0.133 µg/mL in [1] and 2.54 µg/mL in experiment [2]. The molecule further registered an IC50 in experiment [4] of 0.015 µg/mL. Moreover, the values for the binding result in experiment [5] and in [7] were “no binding (tested: 150 nM VEGF)” and “no binding”, respectively. Also, the values for the Kd in experiment [6] and in experiment [8] were 1.6 nM and 3 nM, respectively.

B4: Bevacizumab-LC06-VH-VL (bispecific antibody, human IgG1, kappa)
heavy 1: not shown
heavy 2: not shown
light 1: QPGLTQPPSVSVAPGQTARITCGGNNIGSKSVHWYQQKPGQAPVLVVYDDSDRPSGIPERFSGSNSGNTATLTISRVEAGDEADYYCQVWDSSSDHYVFGTGTKVTVLRTVAAPSVFIFPPSDEQLKSGTASVVCLLNNFYPREAKVQWKVDNALQSGNSQESVTEQDSKDSTYSLSSTLTLSKADYEKHKVYACEVTHQGLSSPVTKSFNRGEC
light 2: EVQLVESGGGLVQPGGSLRLSCAASGYTFTNYGMNWVRQAPGKGLEWVGWINTYTGEPTYAADFKRRFTFSLDTSKSTAYLQMNSLRAEDTAVYYCAKYPHYYGSSHWYFDVWGQGTLVTVSSASVAAPSVFIFPPSDEQLKSGTASVVCLLNNFYPREAKVQWKVDNALQSGNSQESVTEQDSKDSTYSLSSTLTLSKADYEKHKVYACEVTHQGLSSPVTKSFNRGEC
notes: Bispecific, bivalent domain exchanged antibody (VH-VL exchange); also called Bevacizumab-LC06-CM-VH-VL
B4 gave a Kd in experiment [9] of 0.1 nM.

B5: Bevacizumab-LC06-VH-VL-SS (bispecific antibody, human IgG1, kappa)
heavy 1: not shown
heavy 2: not shown
light 1: QPGLTQPPSVSVAPGQTARITCGGNNIGSKSVHWYQQKPGQAPVLVVYDDSDRPSGIPERFSGSNSGNTATLTISRVEAGDEADYYCQVWDSSSDHYVFGCGTKVTVLRTVAAPSVFIFPPSDEQLKSGTASVVCLLNNFYPREAKVQWKVDNALQSGNSQESVTEQDSKDSTYSLSSTLTLSKADYEKHKVYACEVTHQGLSSPVTKSFNRGEC
light 2: EVQLVESGGGLVQPGGSLRLSCAASGYTFTNYGMNWVRQAPGKGLEWVGWINTYTGEPTYAADFKRRFTFSLDTSKSTAYLQMNSLRAEDTAVYYCAKYPHYYGSSHWYFDVWGQGTLVTVSSASVAAPSVFIFPPSDEQLKSGTASVVCLLNNFYPREAKVQWKVDNALQSGNSQESVTEQDSKDSTYSLSSTLTLSKADYEKHKVYACEVTHQGLSSPVTKSFNRGEC
notes: Bispecific, bivalent domain exchanged antibody (VH-VL exchange and an additional VH44 VL100 disulfide bridge)
As to B5, the Kd in [9] came to 0.1 nM.

B6: <ANG-2> Ang2k_LC08 (antibody, V domains shown)
VH: QVQLVESGGGVVQPGGSLRLSCAASGFTFSSYGMHWVRQAPGKGLEWVAVISYDGSNKYYADSVKGRFTISRDNSKNTLYLQMNSLRAEDTAVYYCAKPTLDIYMGYYYGMDVWGQGTTVTVSS
VL: QPVLTQPPSASGAPGQRVTISCSGFASNIGSNSVNWYQQVPGTAPKLLIYNNDQRPSGVPDRFSGSRSGTSASLAISGLQSEDEADYYCAAWDDSLNGPVFGGGTKLTVLG
notes: Parent monospecific antibody; also called <ANG-2>Ang2i-LC08
B6: in experiment [1], the response was half-maximal at 0.105 µg/mL (EC50). The EC50 in experiment [2] was 4.04 µg/mL. In [3], the “IC50, ANGPT2 stimulated Tie2 phosphorylation (HEK293-Tie2 cells), first experiment” value was about 0.499 µg/mL and the “IC50, ANGPT2 stimulated Tie2 phosphorylation (HEK293-Tie2 cells), second experiment” value is about 0.399 µg/mL.

B7: disulfide-stabilized <VEGF-ANG-2> TvAb6 (bispecific antibody, IgG1)
heavy (part 1 of 2): EVQLVESGGGLVQPGGSLRLSCAASGFTISDYWIHWVRQAPGKGLEWVAGITPAGGYTYYADSVKGRFTISADTSKNTAYLQMNSLRAEDTAVYYCARFVFFLPYAMDYWGQGTLVTVSS
heavy (part 2 of 2): not shown
light: DIQMTQSPSSLSASVGDRVTITCRASQDVSTAVAWYQQKPGKAPKLLIYSASFLYSGVPSRFSGSGSGTDFTLTISSLQPEDFATYYCQQGYGNPFTFGQGTKVEIK
notes: Tetravalent: full-length IgG1 G6-31 with a VH44/VL100 disulfide-stabilized Mab536 scFv at the C-terminus of each heavy chain; also called TvAb6 (2331); No. 2331; not shown: IgG1 heavy chain constant region; light chain constant region
In the case of B7, in [6], the Kd was 4.4 nM. Moreover, in [10], binding was characterised by a dissociation constant (Kd) of 0.00153 nM, the koff was found to be 7.24e-06 s⁻¹, the kon came out at 4.72e+06 M⁻¹ s⁻¹ and the t1/2 came out at 26.6 h.

As a reminder, the EC50 is the concentration at which the effect is half-maximal. Low readings indicate higher potency in that assay, high ones lower potency in that assay. One may read the IC50 as the point on the concentration scale where inhibition reaches its midpoint. A word on the Kd: it is a measure of binding affinity in units of concentration. A word on the koff: it is the first-order rate constant of dissociation. The term kon denotes the rate constant with which the complex forms. The low end stands for slower complex formation, the high end for faster complex formation.
